In publication PMC1560149, “The DNA polymerase activity of Pol ε holoenzyme is required for rapid and efficient chromosomal DNA replication in Xenopus egg extracts” (BMC Biochemistry, 2006):

Target: T1, p17 (the fourth subunit of xPol ε complex) (Xenopus, UniProt Q6WSQ3 1-147)
T1 construct: p17 subunit of Xenopus DNA polymerase epsilon, 147 amino acids; also called xPol ε p17; source: sf21 insect cells, baculovirus, co-expressed, in crude extract
T1 sequence (looked up): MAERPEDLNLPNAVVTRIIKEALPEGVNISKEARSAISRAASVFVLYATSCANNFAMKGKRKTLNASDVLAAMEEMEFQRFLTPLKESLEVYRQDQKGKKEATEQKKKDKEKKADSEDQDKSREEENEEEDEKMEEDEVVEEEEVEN
Assay: not stated; data not shown; p12 and p17 in insect cells

B1: p12 (the third subunit of xPol ε complex) (natural protein, Xenopus, UniProt Q0EAE6 1-116, looked up)
chain: MAAEVAAPESLEGSGSQEDAGPSSPPAAHPAPCPSKQARLPLSRIKALMKADPDLSLASQESVFVISKATELFIETIAKDAYLYAQQGKRKTLQRKDLDNAIDAIDEFAFLEGTLD
notes: p12 subunit of Xenopus DNA polymerase epsilon, 116 amino acids; also called xPol ε p12; source: sf21 insect cells, baculovirus, co-expressed, in crude extract
- stoichiometry N: 1
